Results on eleven molecules are retold here after patent US20220175942A1 (published 2022).

Usually Kd stands for the free concentration of one partner at which half of the binding sites on the other are occupied at equilibrium, for simple one-to-one binding. Lower therefore signals a tighter complex.

B4: CCL8_HUMAN (ligand)
chain: QPDSVSIPITCCFNVINRKIPIQRLESYTRITNIQCPKEAVIFKTKRGKEVCADPKERWVRDSMKHLDQIFQNLKP
B11: CCL11_HUMAN (ligand)
chain: not shown

One assay deals with EVASIN4. Put plainly: -; previously described evasin.
In a further assay the target is CCL3L1_HUMAN. Put plainly: BLI. (In BLI a coated tip is dipped into the sample, and binding shifts an interference pattern.)
The next assay addresses CCL4L1_HUMAN. The assay can be described thus: BLI.
The target in another assay is CCL7_HUMAN. The assay can be described thus: BLI.
For the next assay, the target named is CCL14_HUMAN. Put plainly: BLI.
The target of the next assay is CCL13_HUMAN. Put plainly: BLI.
A further assay has as its target T1, CCL3_HUMAN (human, UniProt P10147 24-92).
T1 chain: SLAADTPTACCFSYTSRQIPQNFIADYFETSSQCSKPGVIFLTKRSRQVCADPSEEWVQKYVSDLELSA
The assay can be described thus: BLI.

The target of a further assay is CCL2_HUMAN (human, UniProt P13500 24-99). Put plainly: BLI.
The assay “CCL8_HUMAN” addresses B4. The assay can be described thus: BLI.
Another assay addresses T2, CCL18_HUMAN (human, UniProt P55774 21-89).
T2 chain: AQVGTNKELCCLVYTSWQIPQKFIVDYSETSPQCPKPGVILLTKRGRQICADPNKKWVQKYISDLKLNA
Put plainly: BLI.

In a further assay the target is T3, CCL4 (human, UniProt P13236 24-92).
T3 chain: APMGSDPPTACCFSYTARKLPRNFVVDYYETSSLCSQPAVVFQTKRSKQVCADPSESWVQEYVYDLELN
Put plainly: BLI.

For the assay “CCL11_HUMAN”, the target named is B11. The assay can be described thus: BLI.

CCL2_HUMAN, sequence (P13500 24-99): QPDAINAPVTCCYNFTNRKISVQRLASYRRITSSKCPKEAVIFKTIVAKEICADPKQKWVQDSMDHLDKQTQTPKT

B1: CCL17_HUMAN (ligand)
chain: ARGTNVGRECCLEYFKGAIPLRKLKTWYQTSEDCSRDAIVFVTVQGRAICSDPNNKRVKNAVKYLQSLERS
B1 had a dissociation constant Kd in the assay with EVASIN4 of 0.61 nM.

B2: P1180_AMBTR (other)
chain: EEPKDGYDYTEGCPFVVLGNGTHAKPAGCSHLCNGAPETLDDNMECYNVTEEVAKRMTPDIPYTCWLGWCSKGECKRDNRTEVCYRGSERE
Consider B2, for which the Kd was determined as 2.19 nM with CCL3L1_HUMAN; 19.5 nM with CCL4L1_HUMAN; 98 nM with CCL7_HUMAN; 4.4 nM with CCL14_HUMAN; 8.96 nM with CCL13_HUMAN; 1.07 nM with CCL3_HUMAN. Also, the equilibrium dissociation constant (Kd) came out at 53 nM with CCL2_HUMAN; 3.63 nM with CCL8_HUMAN; 5.78 nM in the assay with CCL18_HUMAN; 66 nM with CCL4; 32.5 nM with CCL11_HUMAN.

B3: CCL19_HUMAN (ligand)
chain: GTNDAEDCCLSVTQKPIPGYIVRNFHYLLIKDGCRVPAVVFTTLRGRQLCAPPDQPWVERIIQRLQRTSAKMKRRSS
As for B3, in the assay with EVASIN4, binding was put at a Kd of 0.14 nM.
B4 displayed a Kd with EVASIN4 of 0.25 nM.

B5: P1183_AMBTR (other)
chain: EAPKDDFEYDGGCPFVVLDNGTHVKPAGCSHLCNGAPETLDNIECYNVTEEVAKRMTPGIPYACWLGWCSKGECKRDNRTEVCYRGSEEE
In the case of B5, the Kd in the assay with CCL3L1_HUMAN amounted to 110 nM; in the assay with CCL4L1_HUMAN it was 48.4 nM; in the assay with CCL7_HUMAN it was 5.38 nM; with CCL13_HUMAN it was 5.67 nM; in the assay with CCL2_HUMAN it was 11.9 nM; with CCL8_HUMAN, 1130 nM. Besides, the dissociation constant Kd with CCL4 was determined as 78.3 nM; with CCL11_HUMAN, 8.47 nM.

B6: CCL5_HUMAN (ligand)
chain: SPYSSDTTPCCFAYIARPLPRAHIKEYFYTSGKCSNPAVVFVTRKNRQVCANPEKKWVREYINSLEMS
In turn, B6 displayed a Kd with EVASIN4 of 0.09 nM.

B7: P983_AMBCA (other)
chain: EDTGTEDDFDYGNTGCPFPVLGNYKSNMTKPVGCKNKCGSGYEVLNDTTPCYVIDQKVFNNMVPLRQYSKCPLGFCENGECKPNDQAEDCYKGREEQK
With B7, the Kd in the assay with CCL3_HUMAN is 3.51 nM; with CCL2_HUMAN, 13.9 nM; with CCL8_HUMAN, 6.99 nM; with CCL4, 8.03 nM; in the assay with CCL11_HUMAN, 18 nM.

B8: P983_AMBPA (other)
chain: EDTGTEDDFDYGNTGCPFPVLGNYKSNMTKPVGCKNKCGSGYEVLNDTTPCYVIDQKVFNNMVPLRQYSKCPLGFCENGECKPNDQAEDCYKGREEQK
As to B8, the Kd with CCL3L1_HUMAN turned out to be 2.08 nM; with CCL4L1_HUMAN it was 2.86 nM; with CCL7_HUMAN it was 32.1 nM; with CCL14_HUMAN it was 81 nM; with CCL13_HUMAN, 17.3 nM.

B9: CCL1_HUMAN (ligand)
chain: KSMQVPFSRCCFSFAEQEIPLRAILCYRNTSSICSNEGLIFKLKRGKEACALDTVGWVQRHRKMLRHCPSKRK
B9 gave a Kd in the assay with EVASIN4 of 0.2 nM.

B10: CCL15_HUMAN (ligand)
chain: QFTNDAETELMMSKLPLENPVVLNSFHFAADCCTSYISQSIPCSLMKSYFETSSECSKPGVIFLTKKGRQVCAKPSGPGVQDCMKKLKPYSI
In turn, B10 showed a Kd with EVASIN4 of 2.31 nM.
B11 yielded a Kd with EVASIN4 of 0.34 nM.
